Assay: yeast display, Sf9 membrane polyspecificity reagent, FACS + sequencing; frameworks hold sequencing errors
Procedure, shortened: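 Sorting gates, low and high (top ~1%), were placed on anti-HA fluorescence to track expression and on streptavidin fluorescence to track reagent binding. A clone's polyreactivity label is taken from the gate it came out of. The reagent was 10% biotinylated, detergent-solubilized Sf9 membrane, applied for 1 hour at 4 °C to galactose-induced yeast display cells.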

Row | Sequence | polyreactivity (PSR sort gate)
1 | QVQLVESGGGLVQSGGSLRLSCAASGIKFYYNARGWYRPAPGKERELVARITWRAGSTYYADSVKGRFTISRDNAKNTVYLQMNSLKPEDTAVYYCNADHDGLGYYFWGQGTQVTVSS | high polyreactivity
2 | QVQLLETGGGLVQAGGSLRLSCAASGSILRWYVRGWYRQAPGKERELVADIDSGGSTNYADSVKGRFTISRDNAKNTVFLQMNSLKPEDTAVYYCASDVPSRSRYGVYRRDGMDYWGQGTQVTVSS | low polyreactivity
3 | QVQLVESGGGLVQAGGSLRLSCAASGRIFYFYAMGWYRQAPGKEMELVAAISTSGGSTYYADSVKGRFTISRDNAKNTVYLQMNSLKPEDTAVYYCNADGYQSRWYYYNYDYWGQGTQVTVSS | low polyreactivity
4 | QVQLVESGGGLVQAGGSLRLSCAASGSIFLQNAMGWYRQAPGKERELVAAITNGGSTNYADSVKGRFTISRDNAKNTVYLQMNSLKPEDTAVYYCAVVRSYRGINDYWGQGTQVTVSS | low polyreactivity
5 | QVQLVESGGGLVQAGGSLRLSCAASGGIFSYYVMGWYRQAPGKEREFVASITQRGRTYYADSVKGRFTISRDNAKNTVYLQINSLKPEDTAVYYCAAGIYAFRRHREEYDYWGQGTQVTVSS | high polyreactivity
6 | QVQLVESGGGLVQAGGSLRLSCAASGRILGKYAMGWYRQAPGKERELVAAIRLRGGSTYYADSVKGRFTISRDNAKNTVYLQMNSLKPEDTAVYYCAARYWDRSQAYTYWGQGTQVTVSS | high polyreactivity
7 | QVQLVESGGGLVQAGGSLRLSCAASGRTFAVYTMGWYRQAPGKERELVARIRYSGGNTYYADSVKGRFTISRENAKNTVYLQMNSLKPEDTAVYYCAARSRYRIYASRNFDYWGQGTQVTVSS | high polyreactivity
8 | QVQLVESGGGLVQAGGSLRLSCAASGFTFPTYAMGWYRQAPGKERELVAALSTSGARTYYADSVKGRFTISRDNAKNTVYLQMNSLKPEDTAVYYCAVGSIYTICFRKGYRFDYWGQGTQVTVSS | high polyreactivity
9 | QVQLVESGVGLVQAGGSLRLSCAASGSIFYQNAMGWYRQAPGKEREFVAAITWIGGSTYYADSVKGRFTISRDNAKNTVYLQMNSLKPEDTAVYYCARRLLRGSDWGQGTQVTVSS | high polyreactivity
10 | QVQLVESGGGLVQAGGSLRLSCAASGSIFTVYAMGWYRQAPGKERELVATITTGGSTNYADSVKGRFTISRDNAKTTVYLQMNSLKPEDTAVYYCAATYWSWISLRFYWGQGTQVTVSS | low polyreactivity
11 | QVQLVESGGGLVQAGGSLRLSCAASGFIFQPYAMGWYRQAPVKERELVAAITSRGGRTYYADSVKGRFTISRDNAKNTVYLQMNSLKPEDTAVYYCNADIYASEYYYWGQGTQVTVSS | low polyreactivity
12 | QVQLVESGGGLVQSGGSLRLSCAASGITTRTYAMGWYRQAPGKDRELVAAISDSGDRTYYADSVKGRFTISRDNAKNTVYLQMNSLKPEDTAVYYCAVDAPGPRGEYWGQGTKVTVSS | low polyreactivity
13 | QVQLVESGGGLVQAGGSLRLSCAASGRTFDGYAMGWYRQAPGKERELVAAIDYDGVSTYYADSVKGRFTISRDNAKNTVYLEMNSLKPEDTAVYYCAVDATDDWWLDYWGQGTQVTVSS | low polyreactivity
14 | QVQLEESGGGLVQAGGSLRLSCAASGRSFWPNAMGWYRQAPGKERELVAAISSGGSTNYADSVKVRFTISRDNAKNTVYLQMNSLKPEDTAVYYCASDGQGDKYDYYGHNFWGQGTQVTVSS | low polyreactivity
15 | QVQLVESGGGLVQAGGSLRLSCAASGFTFHRYAMGWYRQAPGKERELVARINWSGGGTYYADSVKGRFTISRDNAKNTVYLQMNSLKPEDTAVYYCNARGVFYVYKHDYWGQGTQVTVSS | high polyreactivity
16 | QVQLEESGGGLVQAGGSLRLSCAASGSTFYINAMGWYRQAPGKERELVAAITWRGGRTYYADSVKGRFTISRDNAKNTVYLQLNSLKPEDTAVYYCAAKVRWHRGTSSYYYWGQGTQVTVSS | high polyreactivity

Row | Sequence | polyreactivity (PSR sort gate)
17 | QVQLVESGGGLVQAGGSLSLSCAASGRIFSNYAMGWYRQAPGKERELVADISSRGVSTYYADSVKGRFTISRDNAKNPGYLQMKSLKPEDTAVYYCAARGYQRQYYYWGQGTQVTVSS | high polyreactivity
18 | QVQLVESGGGLVQAGGSLRLSCAASGYTFPRYTMGWYRQAPGKERELVAAINWSGGSTYYADSVKGRFTISRDNAKNTVYLQMNSLKPEDTAVYYCNKAYVSRYDYWGQGTQVTVSS | high polyreactivity
19 | QVQLVESGGGLVQAGGSLRLSCAASGYIFGYYVMGWYRQARGKERELVAAISDSDITYYADSVKGRFTISRDNAKNTVSLQMNSLKPEDTAVYYCNADFGYWWDGRRYDYWGQGTQVTVSS | low polyreactivity
20 | QVQLVESGGGLVQAGGSLRLSCAASGRTLPANGMGWYRQAPGKQREFVAAINWRGGITYYADSVKGRFTISRDNSKNTVYLQMNSLNPEDTAVYYCARLRYFLLNGSLRYGTSDRDYWGQGTQVTVSS | high polyreactivity
21 | QVQIVESVGGLVQAGGSLRLSCAASGSTFWFTDMGWYRQAPGKERELVAVITWTGGSTSYADSVKGRFTISRDNAKNTDYLQMKCLNAEDTADYYCDTPVKFGGVPYRYGYWGQGTEVTVSS | low polyreactivity
22 | HAQLQDSGGGLVQAGGSLRLSCAASGNISSEYYMGWGRQAPGSGREFVAAIDYGGTTNYADNVKGRFTISRDNAKNTVYLQMNSLRPEDTAVYYCAASCDTIGLFAYWGQGTQVTVIS | high polyreactivity
23 | QVQLVESVGGLVQAGGSLRLSCAASGRTFTYNSMGSYRQAPGKERELVAAITRRGGSTYYADSVKGRFTISRDNAKNTVYLQMNSLKPEDTAVYYCAATGYLRTYDYWGQGTQVTVSS | high polyreactivity
24 | QVQHVESAGGLVQAGGSLRLSCAASGSIFWYAMGWYRQAPGKERELVDGISRGGSTYYADSVKGRFTISRDNAKNTVYLQMNSLKPEDTAVYYFNTAGYYGTPYNYWGQGTQVTVSS | low polyreactivity
25 | QVQLVESGGGLVQAAASLRLSCPASGSTFRFYTMALYIQSPGTESDLVAAITRRGGITFYSDSVKWRFTISRDNAKNTVYLHMNSLKPEDTAVYDCAARFAYWGQDYYFWGQGSQVTVSS | high polyreactivity
26 | QVQLVESGGGLVQAGGSLRLSCAASGITYRYAMGCYRQAPGKERELVAAITSSGASTYYADSVKGRFTISRDNAKNTVYLQMNSLKPEDTAVYYCATPLRKVYGGYEYWGQGTQVTVSS | low polyreactivity
27 | QVQLVESGGGLVQAGGRLRLSSAASGRIFHSYAMGWYRQAPGKDRELVAGITSRGGTYYADSVKGRFTISRDNAKNTVYLQMNSLKPEDTAVYYCNADQALYSSGNKYDYWGQGTQVTVSS | low polyreactivity
28 | QVQLVESGGGLVQAGGSLRLSCAASGSTFDANTMGWYRQAPGKERELVAAISSNGGRTYYADSVKGRFTISRDNAKNTVYLQMNSLKPEDTAVYYCAATSYYRYRETYDYWGQGTQVTVSS | high polyreactivity
29 | QVQLVESGGGLVQAGGRLRLSCAASGSTFGENVMGWYRQAPGKERELVAAISRGGSTYYADSVKGRFTISRDNAKNTVYLQMNSLKPEDTAVYYCAARTRSGPRYNYNYWGQGTQVTVSS | high polyreactivity
30 | QVQLVESGGGLFQEGGSLRLSCAASGRTLRYYAMGWYRQAPGKVRELVAAISSGGTTNYADSVKGRFTISRDNAKNTVYFQMKSLKPEDTAVYYFAASYRRFRFSHYDYWGQVTQVTVSS | high polyreactivity
31 | QVQLVESGGGLVQAGGSLRLSCPASGFTFYRYAMGWYRQSPGKEREFVAAITWSGGSTYYADSVKGRFTISRDNAKNTVYLQMNSLKPEDTAVYYCAAYVALDGTREYDYWGQGTQVTVSS | high polyreactivity
32 | QVQLVESGGGLVQAGGSLRLSCADSGRIYGIYAMGWYRQAPGKERELVAAITNIGGRTYYADSVKGRFTISRDNAKNTVYLQMNSLKPEDTAVYYCAKRWRRRFVDVWSLYDYWGQGTQVTVSS | low polyreactivity

Reference: the nanobody polyreactivity screen of Harvey et al. (2022)
